Data published in article PMC4378652 (Molecular and cellular endocrinology, 2015).

B1: Pituitary hFSH^24/21 (AFP7298A) (ligand)
chain 1: not shown
chain 2: NSCELTNITIAIEKEECRFCISINTTWCAGYCYTRDLVYKDPARPKIQKTCTFKELVYETVRVPGCAHHADSLYTYPVATQCHCGKCDSDSTDCTVRGLGPSYCSFGEMKE
modifications: N-glycosylated (positions not given) | mixture of FSHβ^24 (fully glycosylated) and FSHβ^21, FSHβ^24 the more abundant
B2: Pituitary hFSH^24 (ligand)
chain 1: not shown
chain 2: B1 chain 2
modifications: N-glycosylated (two N-glycans, positions not given) | fully glycosylated FSHβ^24 (N-glycans at Asn7 and Asn24)

Biological target: T1, rat FSH receptor (rat testis homogenate) (rat (endogenous in rat testis), UniProt P20395 18-692)
T1 sequence (looked up): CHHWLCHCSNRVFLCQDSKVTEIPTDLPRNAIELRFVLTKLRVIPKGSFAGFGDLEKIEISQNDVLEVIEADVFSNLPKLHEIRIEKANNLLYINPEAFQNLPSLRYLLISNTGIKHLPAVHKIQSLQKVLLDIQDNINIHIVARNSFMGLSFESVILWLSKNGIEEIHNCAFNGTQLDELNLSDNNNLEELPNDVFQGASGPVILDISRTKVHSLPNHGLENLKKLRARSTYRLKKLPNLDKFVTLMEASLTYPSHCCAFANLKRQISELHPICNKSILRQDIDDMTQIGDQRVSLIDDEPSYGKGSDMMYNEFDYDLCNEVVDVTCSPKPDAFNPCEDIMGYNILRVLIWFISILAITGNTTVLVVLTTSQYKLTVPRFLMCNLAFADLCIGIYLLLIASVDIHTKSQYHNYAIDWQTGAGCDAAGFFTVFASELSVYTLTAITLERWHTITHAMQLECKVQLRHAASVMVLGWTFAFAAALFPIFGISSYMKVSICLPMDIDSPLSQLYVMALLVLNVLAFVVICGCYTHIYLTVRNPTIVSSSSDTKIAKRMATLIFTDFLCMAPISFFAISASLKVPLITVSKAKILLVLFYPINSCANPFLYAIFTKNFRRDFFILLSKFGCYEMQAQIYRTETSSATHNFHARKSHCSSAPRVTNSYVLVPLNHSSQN
Assay: radioligand binding

Row | Binder | ID50 [ng]
1 | B1 | 114
2 | B2 | 253
